Measured values reported in US11300572B2, “Methods and systems for producing nanolipoprotein particles” (LAWRENCE LIVERMORE NATIONAL SECURITY, LLC, priority 2007, dated 2022).

Assay type: physicochemical
Protocol: Cell-free reactions were then performed. In particular, preparative reactions are carried out using the Invitrogen's Expressway Maxi kit or Roche's RTS 500 ProteoMaster Kit. Basically, lyophilized reaction components (Lysate, Reaction Mix, Amino Acid Mix, Methionine) are dissolved in Reconstitution Buffer and combined as specified by the manufacturer. For co-expression a total of 5 μg of each plasmid DNA (bOp and Δ49A1) was added to the lysate mixture with added DMPC vesicles and retinal cofactor (see below). The reactions were incubated at 30° C. or 37° C. for 4-24 h. For membrane protein survey studies co-expression of 0.2 ug Δ49A1 DNA and 1 ug of each membrane protein DNA was added to the cell-free mixture where [^35S]Met (135 mCi/mmol final) (Perkin Elmer, Waltham, Mass.) was added in place of methionine. The soluble fraction was obtained by centrifuging the reactions at 14000×g for 5 min. Autoradiograms were generated by overnight exposures to proteins separated by SDS-PAGE (data not shown). Percent solubility was determined using ImageJ software (U. S. National Institutes of Health) to quantize autoradiogram bands for the soluble fractions in the presence and absence of apolipoprotein Δ49A1.
All were expressed in the presence of 30-50 μM all-trans-retinal and 2 mg/mL DMPC. […]
The NLPs were also analyzed by SDS Page. […]

B1: bR: bacteriorhodopsin from H. salinarium, seven transmembrane protein, cell-free expressed from bOp with all-trans retinal (protein, UniProt P02945 14-262, looked up)
Bacteriorhodopsin: QAQITGRPEWIWLALGTALMGLGTLYFLVKGMGVSDPDAKKFYAITTLVPAIAFTMYLSMLLGYGLTMVPFGGEQNPIYWARYADWLFTTPLLLLDLALLVDADQGTILALVGADGIMIGTGLVGALTKVYSYRFVWWAISTAAMLYILYVLFFGFTSKAESMRPEVASTFKVLRNVTVVLWSAYPVVWLIGSEGAGIVPLNIETLLFMVLDVSAKVGFGLILLRSRAIFGEAEAPEPSAGDGAAATSD
modifications: all-trans retinal chromophore
solubility of bR: insoluble
